Reference: PMC8808184 (2021)

T1: hCNTN5 (Homo sapiens (Human), UniProt O94779)
T1 chain: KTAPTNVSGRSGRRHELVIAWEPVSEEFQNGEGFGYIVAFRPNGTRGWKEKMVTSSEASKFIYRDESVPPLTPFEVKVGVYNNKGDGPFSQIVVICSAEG

T2: hCNTN3 (Homo sapiens (Human), UniProt Q9P232)
T2 chain: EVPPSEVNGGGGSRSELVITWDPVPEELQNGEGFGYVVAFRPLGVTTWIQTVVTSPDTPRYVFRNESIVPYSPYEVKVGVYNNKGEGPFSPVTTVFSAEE


Key:
[1] = target: T1, hCNTN5; experiment: BLI steady state, CNTN FN1-FN3 over biotinylated E1
[2] = target: T2, hCNTN3; experiment: as above

| Kd [1] [µM] | Kd [2] [µM] | Binder |
| --- | --- | --- |
| 38.6 | – | hAPLP2 (protein) GEFVSDVLLVPEKCQFFHKERMEVCENHQHWHTVVKEACLTQGMTLYSYGMLLPCGVDQFHGTEYVCCPQ |
| 10.9 | 9.1 | hAPLP1 (protein) GEFVSEALLVPEGCRFLHQERMDQCESSTRRHQEAQEACSSQGLILHGSGMLLPCGSDRFRGVEYVCCPP |
